Test results reported in patent publication US20250035633A1 (published 2025).
Like-named read-outs stand apart in the source and are kept apart here. One block for each binder: values may come before it.

What was measured:
recombinant CDH17-hFc [1] = target: T1, recombinant CDH17-hFc (human, UniProt Q12864 23-787); test: ELISA
recombinant CDH17-hFc [2] = target: T1, recombinant CDH17-hFc; test: OCTET BLI
recombinant CDH17-hFc [3] = target: T1, recombinant CDH17-hFc; test: ELISA; remark: listed apart in the source
recombinant CDH17-hFc [4] = target: T1, recombinant CDH17-hFc; test: OCTET BLI; remark: listed apart in the source

T1 sequence (Q12864 23-787): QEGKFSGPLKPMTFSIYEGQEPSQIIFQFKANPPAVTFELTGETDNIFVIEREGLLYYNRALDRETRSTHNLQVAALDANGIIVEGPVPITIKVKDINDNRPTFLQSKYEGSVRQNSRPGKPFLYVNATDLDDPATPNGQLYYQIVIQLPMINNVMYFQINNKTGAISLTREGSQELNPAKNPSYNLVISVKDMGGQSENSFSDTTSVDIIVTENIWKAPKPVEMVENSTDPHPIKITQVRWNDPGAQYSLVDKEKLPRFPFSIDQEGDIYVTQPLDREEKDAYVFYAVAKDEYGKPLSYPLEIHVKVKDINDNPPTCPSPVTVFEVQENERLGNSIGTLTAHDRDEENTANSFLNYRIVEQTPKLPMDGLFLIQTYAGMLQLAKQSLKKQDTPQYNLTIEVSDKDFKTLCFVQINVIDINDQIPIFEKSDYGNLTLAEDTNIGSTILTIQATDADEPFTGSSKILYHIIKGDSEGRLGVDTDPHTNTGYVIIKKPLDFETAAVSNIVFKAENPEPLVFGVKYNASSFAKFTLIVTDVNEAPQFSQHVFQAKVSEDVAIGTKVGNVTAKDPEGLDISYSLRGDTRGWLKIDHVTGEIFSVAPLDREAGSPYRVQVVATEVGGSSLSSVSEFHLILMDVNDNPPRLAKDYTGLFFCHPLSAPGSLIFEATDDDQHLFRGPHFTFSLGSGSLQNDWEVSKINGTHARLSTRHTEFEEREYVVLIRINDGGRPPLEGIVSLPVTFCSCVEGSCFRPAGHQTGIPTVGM

- EC50 (recombinant CDH17-hFc [1]): 7.9 ng/mL
- Kd (recombinant CDH17-hFc [2]): 10.9 nM
B1: mLic3 (antibody, V domains shown)
VH: EVQLVESGGGLVKPGGSLKLSCAASGFSFSDYYMYWVRQAPEKRLEWVASISFDGTYTYYTDRVKGRFTISRDNAKNNLYLQMSSLKSEDTAMYYCARDRPAWFPYWGQGTLVTVSA
VL: DVLMTQIPLSLTVSLGDQASISCRSSQSIVHSNGNTYLEWYLQRPGQSPKLLIYKVSNRFSGVPDRFSGSGSGTDFTLKISRVEAEDLGVYYCFQGSHVPLTFGAGTKLELK

- EC50 (recombinant CDH17-hFc [3]): 4.2 ng/mL
- Kd (recombinant CDH17-hFc [4]): 20.6 nM
B2: m7C5 (antibody, V domains shown)
VH: QVQLQQSGAELARPGASVKLSCKASGYTFTSYGLSWVKQRTGQGLEWIGEIFPRSGNSYYNEKFKGKAALTADKSSSTAYMQLSSLTSEDSAVYFCARHYYSSLYYAMDYWGQGTSVTVSS
VL: DIQVTQSPASLSASVGESVSITCGTNENLYGALNWYQRKQGKSPQLLIYGATNLADGMSSRFSGSGSGRQYSLKISSLHPDDVATYYCQNVLSTPRTFGGGTKLEIK
